Results published in article PMC7170535, “Inter-α-inhibitor heavy chain-1 has an integrin-like 3D structure mediating immune regulatory activities and matrix stabilization during ovulation” (The Journal of Biological Chemistry, 2020).
One block for each binder: values may come before it.

B1: recombinant inter-α-inhibitor heavy chain 1 (rHC1), ΔvWFA mutant lacking residues 288-478 (natural protein, human, UniProt P19827 35-672, looked up)
chain: SKSSEKRQAVDTAVDGVFIRSLKVNCKVTSRFAHYVVTSQVVNTANEAREVAFDLEIPKTAFISDFAVTADGNAFIGDIKDKVTAWKQYRKAAISGENAGLVRASGRTMEQFTIHLTVNPQSKVTFQLTYEEVLKRNHMQYEIVIKVKPKQLVHHFEIDVDIFEPQGISKLDAQASFLPKELAAQTIKKSFSGKKGHVLFRPTVSQQQSCPTCSTSLLNGHFKVTYDVSRDKICDLLVANNHFAHFFAPQNLTLLVDVDLQYPQDAVLALTQNHHKQYYEGSEIVVAGRIADNKQSSFKADVQAHGEGQEFSITCLVDEEEMKKLLRERGHMLENHVERLWAYLTIQELLAKRMKVDREERANLSSQALQMSLDYGFVTPLTSMSIRGMADQDGLKPTIDKPSEDSPPLEMLGPRRTFVLSALQPSPTHSSSNTQRLPDRVTGVDTD
notes: source: expressed and purified as described previously (58)
B2: vitronectin (natural protein, UniProt P04004 20-478, looked up)
chain: DQESCKGRCTEGFNVDKKCQCDELCSYYQSCCTDYTAECKPQVTRGDVFTMPEDEYTVYDDGEEKNNATVHEQVGGPSLTSDLQAQSKGNPEQTPVLKPEEEAPAPEVGASKPEGIDSRPETLHPGRPQPPAEEELCSGKPFDAFTDLKNGSLFAFRGQYCYELDEKAVRPGYPKLIRDVWGIEGPIDAAFTRINCQGKTYLFKGSQYWRFEDGVLDPDYPRNISDGFDGIPDNVDAALALPAHSYSGRERVYFFKGKQYWEYQFQHQPSQEECEGSSLSAVFEHFAMMQRDSWEDIFELLFWGRTSAGTRQPQFISRDWHGVPGQVDAAMAGRIYISGMAPRPSLAKKQRFRHRNRKGYRSQRGHSRGRNQNSRRPSRATWLSLFSSEESNLGANNYDDYRMDWLVPATCEPIQSVFFFSGDKYYRVNLRTRRVDTVDPPYPRSIAQYWLGCPAPGHL
notes: Vitronectin; source: bought: PeproTech
B5: recombinant inter-α-inhibitor heavy chain 1 (rHC1), wild type (natural protein, human, UniProt P19827 35-672, looked up)
chain: SKSSEKRQAVDTAVDGVFIRSLKVNCKVTSRFAHYVVTSQVVNTANEAREVAFDLEIPKTAFISDFAVTADGNAFIGDIKDKVTAWKQYRKAAISGENAGLVRASGRTMEQFTIHLTVNPQSKVTFQLTYEEVLKRNHMQYEIVIKVKPKQLVHHFEIDVDIFEPQGISKLDAQASFLPKELAAQTIKKSFSGKKGHVLFRPTVSQQQSCPTCSTSLLNGHFKVTYDVSRDKICDLLVANNHFAHFFAPQNLTNMNKNVVFVIDISGSMRGQKVKQTKEALLKILGDMQPGDYFDLVLFGTRVQSWKGSLVQASEANLQAAQDFVRGFSLDEATNLNGGLLRGIEILNQVQESLPELSNHASILIMLTDGDPTEGVTDRSQILKNVRNAIRGRFPLYNLGFGHNVDFNFLEVMSMENNGRAQRIYEDHDATQQLQGFYSQVAKPLLVDVDLQYPQDAVLALTQNHHKQYYEGSEIVVAGRIADNKQSSFKADVQAHGEGQEFSITCLVDEEEMKKLLRERGHMLENHVERLWAYLTIQELLAKRMKVDREERANLSSQALQMSLDYGFVTPLTSMSIRGMADQDGLKPTIDKPSEDSPPLEMLGPRRTFVLSALQPSPTHSSSNTQRLPDRVTGVDTD
notes: Monomer in EDTA, monomer-dimer equilibrium in Mg2+ or Mn2+; also called rHC1 (WT); WT rHC1; source: expressed and purified as described previously (58)

What was measured:
vitronectin = molecular target: B2; assay: SPR; 1,500 RU rHC1 proteins immobilised on a C1 chip by amide cross-linking; ligand as analyte; HEPES-buffered saline pH 7.5, 0.05% Tween 20, 10 mM EDTA; 50 μl/min; multicycle kinetics, 1:1 Langmuir; conditions: both partners purified
[1] = molecular target: B5; assay: as above; conditions: both partners purified
[2] = molecular target: T1, recombinant inter-α-inhibitor heavy chain 1 (rHC1), D298A MIDAS mutant (human, UniProt P19827 35-672, D298A); assay: as above; conditions: both partners purified
T1 construct: source: expressed and purified as described previously (58)
T1 sequence (looked up): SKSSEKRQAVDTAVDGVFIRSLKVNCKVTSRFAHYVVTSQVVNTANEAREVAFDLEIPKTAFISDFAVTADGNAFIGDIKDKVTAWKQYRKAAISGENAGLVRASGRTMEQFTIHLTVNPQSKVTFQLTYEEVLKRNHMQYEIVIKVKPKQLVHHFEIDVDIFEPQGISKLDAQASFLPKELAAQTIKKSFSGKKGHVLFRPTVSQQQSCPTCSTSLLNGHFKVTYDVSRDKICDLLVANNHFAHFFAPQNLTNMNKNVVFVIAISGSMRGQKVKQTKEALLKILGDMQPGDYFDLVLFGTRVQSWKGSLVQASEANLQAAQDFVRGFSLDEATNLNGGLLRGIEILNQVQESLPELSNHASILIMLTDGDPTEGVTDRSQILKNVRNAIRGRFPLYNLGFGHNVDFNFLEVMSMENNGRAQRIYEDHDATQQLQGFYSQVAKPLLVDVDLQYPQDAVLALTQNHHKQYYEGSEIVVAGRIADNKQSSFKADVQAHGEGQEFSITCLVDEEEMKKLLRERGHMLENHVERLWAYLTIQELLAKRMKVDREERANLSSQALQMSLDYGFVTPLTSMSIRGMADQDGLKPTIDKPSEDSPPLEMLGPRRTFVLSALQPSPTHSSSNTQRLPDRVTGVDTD

[3] = molecular target: B5; assay: SPR; 1,500 RU rHC1 proteins immobilised on a C1 chip by amide cross-linking; ligand as analyte; HEPES-buffered saline pH 7.5, 0.05% Tween 20, 2 mM Mg2+, 2 mM Mn2+; 50 μl/min; multicycle kinetics, 1:1 Langmuir; conditions: both partners purified
[4] = molecular target: T1, recombinant inter-α-inhibitor heavy …; assay: as above; conditions: both partners purified
[5] = molecular target: B5; assay: SPR; 1,000 RU rHC1 proteins immobilised on a C1 chip; cFN13–14 at 7.5-120 nM as analyte; HEPES-buffered saline pH 7.4, 0.05% Tween 20, no added metal ions or EDTA; 30 μl/min; single cycle kinetics, 1:1 Langmuir; conditions: both partners purified
[6] = molecular target: T1, recombinant inter-α-inhibitor heavy …; assay: as above; conditions: both partners purified
[7] = molecular target: B1; assay: as above; conditions: both partners purified
[8] = molecular target: the molecule itself; assay: SAXS; rHC1 proteins at 1.25, 2.5 and 5.0 mg/ml in HEPES-buffered saline pH 7.5 with 5 mM MgCl2
[9] = molecular target: the molecule itself; assay: AUC; equilibrium AUC; rHC1 at 4, 11 and 22 μM with 0.1, 0.5, 1 or 5 mM MgCl2; 20 °C; global fit to a monomer–dimer model; dimer to monomers

Binder: B1
- Kd (vitronectin): 0.097 nM

Binder: B2
- Kd [1]: 0.192 nM
- Kd [2]: 0.138 nM
- Kd [3]: 0.118 nM
- Kd [4]: 0.096 nM

B4: fibronectin type III repeats 13 and 14 (cFN13–14) (domain or fragment, human, UniProt P02751-1 1812-1991, looked up)
chain: ENVSPPRRARVTDATETTITISWRTKTETITGFQVDAVPANGQTPIQRTIKPDVRSYTITGLQPGTDYKIYLYTLNDNARSSPVVIDASTAIDAPSNLRFLATTPNSLLVSWQPPRARITGYIIKYEKPGSPPREVVPRPRPGVTEATITGLEPGTEYTIYVIALKNNQKSEPLIGRKKT
notes: Fibronectin, human, amino acid residues 1812-1991 (type III repeats 13 and 14); Mass spectrometry matched the construct with the N-terminal methionine removed; the monomeric protein was separated from dimeric cFN13–14 on heparin; source: E. coli BL21(DE3) pLysS, purified (nickel Sepharose, HisTrap HP, HiTrap heparin HP; monomeric form)
- Kd [5]: 14 nM
- Kd [6]: 15.7 nM
- Kd [7]: 16.3 nM

Binder: B5
- stoichiometry N [8]: 2
- Kd [9]: 35300 nM

Continued, values first:

- Kd [3]: 9.9 nM
- Kd [4]: 3.1 nM
B3: TGFβ3-LAP, small latent complex of TGFβ3 (complex)
chain 1: LSTCTTLDFGHIKKKRVEAIRGQILSKLRLTSPPEPTVMTHVPYQVLALYNSTRELLEEMHGEREEGCTQENTESEYYAKEIHKFDMIQGLAEHNELAVCPKGITSKVFRFNVSSVEKNRTNLFRAEFRVLRVPNPSSKRNEQRIELFQILRPDEHIAKQRYIGGKNLPTRGTAEWLSFDVTDTVREWLLRRESNLGLEISIHCPCHTFQPNGDILENIHEVMEIKFKGVDNEDDHGRGDLGRLKKQKDHHNPHLILMMIPPHRLDNPGQGGQRKKR
chain 2: ALDTNYCFRNLEENCCVRPLYIDFRQDLGWKWVHEPKGYYANFCSGPCPYLRSADTTHSTVLGLYNTLNPEASASPCCVPQDLEPLTILYYVGRTPKVEQLSNMVVKSCKCS

- Kd [3]: 8.8 nM
- Kd [4]: 12.9 nM
B6: TGFβ2-LAP, small latent complex of TGFβ2 (complex)
chain 1: LSTCSTLDMDQFMRKRIEAIRGQILSKLKLTSPPEDYPEPEEVPPEVISIYNSTRDLLQEKASRRAAACERERSDEEYYAKEVYKIDMPPFFPSENAIPPTFYRPYFRIVRFDVSAMEKNASNLVKAEFRVFRLQNPKARVPEQRIELYQILKSKDLTSPTQRYIDSKVVKTRAEGEWLSFDVTDAVHEWLHHKDRNLGFKISLHCPCCTFVPSNNYIIPNKSEELEARFAGIDGTSTYTSGDQKTIKSTRKKNSGKTPHLLLMLLPSYRLESQQTNRRKKR
chain 2: ALDAAYCFRNVQDNCCLRPLYIDFKRDLGWKWIHEPKGYNANFCAGACPYLWSSDTQHSRVLSLYNTINPEASASPCCVSQDLEPLTILYYIGKTPKIEQLSNMIVKSCKCS
